Data on seven sequences can be found in the supplement of paper PMC11246515.

± gives the standard deviation of the averaged measurements.

The data set can be described thus: total protein half-life in vivo (active degradation + dilution); higher = more stable protein.
Setting [1] is: E. coli NCM3722 delta-clpP delta-lon delta-hslV, growth: N-lim chemostat, doubling time 6 h.
[2] abbreviates: wild type E. coli NCM3722, growth: C-lim chemostat, doubling time 3 h.
[3] abbreviates: wild type E. coli NCM3722, growth: C-lim chemostat, doubling time 6 h.
Where [4] appears, read: wild type E. coli NCM3722, growth: C-lim chemostat, doubling time 12 h.
The mark [5] stands for this setting: wild type E. coli NCM3722, growth: P-lim chemostat, doubling time 6 h.
Setting [6] is: wild type E. coli NCM3722, growth: P-lim chemostat, doubling time 12 h.
[7] abbreviates: E. coli NCM3722 delta-clpP, growth: N-lim chemostat, doubling time 6 h.
The mark [8] stands for this setting: E. coli NCM3722 delta-hslV, growth: N-lim chemostat, doubling time 6 h.
[9] abbreviates: E. coli NCM3722 delta-lon, growth: N-lim chemostat, doubling time 6 h.
[10] abbreviates: E. coli NCM3722 delta-smpB, growth: N-lim chemostat, doubling time 6 h.
Setting [11] is: wild type E. coli NCM3722, growth: N-lim chemostat, doubling time 6 h.
The mark [12] stands for this setting: wild type E. coli NCM3722, growth: N-lim chemostat, doubling time 12 h.

With “MTEPHVAVLSQVQQFLDRQHGLYIDGRPGPAQSEKRLAIFDPATGQEIASTADANEADVDNAVMSAWRAFVSRRWAGRLPAERERILLRFADLVEQHSEELAQLETLEQGKSIAISRAFEVGCTLNWMRYTAGLTTKIAGKTLDLSIPLPQGARYQAWTRKEPVGVVAGIVPWNFPLMIGMWKVMPALAAGCSIVIKPSETTPLTMLRVAELASEAGIPDGVFNVVTGSGAVCGAALTSHPHVAKISFTGSTATGKGIARTAADHLTRVTLELGGKNPAIVLKDADPQWVIEGLMTGSFLNQGQVCAASSRIYIEAPLFDTLVSGFEQAVKSLQVGPGMSPVAQINPLVSRAHCDKVCSFLDDAQAQQAELIRGSNGPAGEGYYVAPTLVVNPDAKLRLTREEVFGPVVNLVRVADGEEALQLANDTEYGLTASVWTQNLSQALEYSDRLQAGTVWVNSHTLIDANLPFGGMKQSGTGRDFGPDWLDGWCETKSVCVRY”, the “total protein half-life in vivo” value under setting [1] was 4.33 h; the “total protein half-life in vivo” value under setting [2] came out at 3.12 ± 0.38 h; the “total protein half-life in vivo” value under setting [3] was determined as 5.23 ± 0.96 h; the “total protein half-life in vivo” value under setting [4] is 8.67 ± 0.33 h; the “total protein half-life in vivo” value under setting [5] was found to be 5.34 ± 0.17 h; the “total protein half-life in vivo” value under setting [6] came to 10.3 ± 0.53 h.

For the sequence “MKKNRAFLKWAGGKYPLLDDIKRHLPKGECLVEPFVGAGSVFLNTDFSRYILADINSDLISLYNIVKMRTDEYVQAARELFVPETNCAEVYYQFREEFNKSQDPFRRAVLFLYLNRYGYNGLCRYNLRGEFNVPFGRYKKPYFPEAELYHFAEKAQNAFFYCESYADSMARADDASVVYCDPPYAPLSATANFTAYHTNSFTLEQQAHLAEIAEGLVERHIPVLISNHDTMLTREWYQRAKLHVVKVRRSISSNGGTRKKVDELLALYKPGVVSPAKK [P0AEE8]”, the “total protein half-life in vivo” value under setting [1] turned out to be 5.89 ± 0.51 h; the “total protein half-life in vivo” value under setting [7] came out at 4.15 ± 0.098 h; the “total protein half-life in vivo” value under setting [8] amounted to 5.84 ± 0.34 h; the “total protein half-life in vivo” value under setting [9] came to 4.29 ± 2.2 h; the “total protein half-life in vivo” value under setting [10] came to 4.51 ± 0.34 h; the “total protein half-life in vivo” value under setting [2] turned out to be 2.94 ± 0.05 h. For the same sequence, the “total protein half-life in vivo” value runs as follows: under setting [3], 5.65 ± 0.72 h; under setting [4], 10.2 ± 0.14 h; under setting [11], 4.65 ± 0.55 h; under setting [12], 10.1 ± 0.92 h; under setting [5], 5.39 ± 0.27 h; under setting [6], 10.9 ± 0.14 h.

As for “MMKFKKCLLPVAMLASFTLAGCQSNADDHAADVYQTDQLNTKQETKTVNIISILPAKVAVDNSQNKRNAQAFGALIGAVAGGVIGHNVGSGSNSGTTAGAVGGGAVGAAAGSMVNDKTLVEGVSLTYKEGTKVYTSTQVGKECQFTTGLAVVITTTYNETRIQPNTKCPEKS”, the “total protein half-life in vivo” value by setting is: under setting [10], 2.3 h; under setting [2], 1.87 h; under setting [11], 2.73 h.

Take “MSEKVVFSQLSRKFIDENDATPAEAQQVVYYSLAIGHHLGVIDCLEAALTCPWDEYLAWIATLEAGSEARRKMEGVPKYGEIVIDINHVPMLANAFDKARAAQTSQQQEWSTMLLSMLHDIHQENAIYLMVRRLRD [P0AEV7]”: the “total protein half-life in vivo” value reads like this: under setting [1], 3.73 h; under setting [7], 2.63 h; under setting [9], 2.37 ± 0.25 h; under setting [10], 1.7 h; under setting [2], 2.34 h; under setting [3], 3.73 h. The “total protein half-life in vivo” value reads like this: under setting [4], 6.99 h; under setting [11], 2.24 ± 0.23 h; under setting [12], 2.34 h; under setting [5], 3.21 h; under setting [6], 6.49 ± 0.1 h.

For “MAYFLDFDERALKEWRKLGSTVREQLKKKLVEVLESPRIEANKLRGMPDCYKIKLRSSGYRLVYQVIDEKVVVFVISVGKRERSEVYSEAVKRIL [P0C077]”, the “total protein half-life in vivo” value was 4.02 ± 0.45 h under setting [1]; 3.59 ± 0.8 h under setting [7]; 2.54 ± 0.14 h under setting [8]; 3.36 ± 0.24 h under setting [9]; 2.83 ± 0.12 h under setting [10]; 3 ± 0.35 h under setting [2]. Moreover, the “total protein half-life in vivo” value runs as follows: under setting [3], 4.25 ± 0.73 h; under setting [4], 6.2 ± 0.85 h; under setting [11], 2.58 ± 0.06 h; under setting [12], 3.73 ± 0.099 h; under setting [5], 3.75 ± 0.74 h; under setting [6], 11.3 ± 0.5 h.

For “MSFELPALPYAKDALAPHISAETIEYHYGKHHQTYVTNLNNLIKGTAFEGKSLEEIIRSSEGGVFNNAAQVWNHTFYWNCLAPNAGGEPTGKVAEAIAASFGSFADFKAQFTDAAIKNFGSGWTWLVKNSDGKLAIVSTSNAGTPLTTDATPLLTVDVWEHAYYIDYRNARPGYLEHFWALVNWEFVAKNLAA [P0AGD3]”, the “total protein half-life in vivo” value runs as follows: under setting [1], 5.3 ± 0.47 h; under setting [7], 5.56 ± 1.2 h; under setting [8], 4.773 ± 0.02 h; under setting [9], 6.2 ± 1.1 h; under setting [10], 4.8 ± 0.58 h; under setting [2], 3.18 ± 0.084 h. Further, the “total protein half-life in vivo” value reads like this: under setting [3], 5.96 ± 0.084 h; under setting [4], 11.6 ± 0.35 h; under setting [11], 5.07 ± 0.39 h; under setting [12], 9.76 ± 0.58 h; under setting [5], 5.95 ± 0.27 h; under setting [6], 12 ± 0.36 h.

As for “MELRHLRYFVAVAQALNFTRAAEKLHTSQPSLSSQIRDLENCVGVPLLVRDKRKVALTAAGECFLQDALAILEQAENAKLRARKIVQEDRQLTIGFVPSAEVNLLPKVLPMFRLRQPDTLIELVSLITTQQEEKIRRGELDVGLMRHPVYSPEIDYLELFDEPLVVVLPVDHPLAHEKEITAAQLDGVNFVSTDPVYSGSLAPIVKAWFAQENSQPNIVQVATNILVTMNLVGMGLGVTLIPGYMNNFNTGQVVFRPIAGNVPSIALLMAWKKGEMKPALRDFIAIVQERLASVTA”, the “total protein half-life in vivo” value came out at 5.58 ± 0.39 h under setting [1] and 0.275 h under setting [2].
